In the nanobody polyreactivity screen of Harvey et al. (2022):

Assay: yeast display, Sf9 membrane polyspecificity reagent, FACS + sequencing; frameworks hold sequencing errors
Method in brief: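 After 36–48 hours of galactose induction, yeast (Saccharomyces cerevisiae BJ5465) displaying a synthetic nanobody library were stained at 4 °C for 1 hour with 10% biotinylated, detergent-solubilized Sf9 membrane reagent. Streptavidin microbeads enriched the stained cells before FACS sorting into low and high (top ~1%) gates on anti-HA and streptavidin fluorescence. Each clone's polyreactivity label reflects its gate of origin.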

| Sequence | polyreactivity (PSR sort gate) |
| --- | --- |
| QVQLVESGGGLVQAGGSLRLSCAASGSIFDRNAMGWYRQAPGKERELVAAISRSSGNTYYADSVKGRFTISRDNAKNTVYLQMNSLNPEDTAVYYCNKAVSYGTYKYYYWGQGTQVTVSS | high polyreactivity |
| QVQLVESGGGLVQAGGSLRLSCAASGSTFGVNTMGWYRQAPGKERELVAAITKSGGSTYYADSVKGRFTISRDNAKNTVYLQMNSLKPEDTAVYYCNTDYGRYLYYRYGYWGQGTQVTVSS | low polyreactivity |
| QVQLVESGGGLVQAGGSLRLSCAASGFIFVRYGMGWYRQAPGKERELVAAITWNGGSTFYADSVKGRFTISRDNAKNTVYLQMNSLKPEDTAVYYCAAGYKYSYRSIYTHVDYWGQGTQVTVSS | low polyreactivity |
| QVQLVESGGGLVQAGGSLRLSCAASGPIFDGYVMGWYRQAPGKERELVAAISKSGARTYYADSVKGRFTISRDNAKNTVYLQMNSLKPEHTAVYYCARFSGVDNAYDYWGQGTQVTVSS | high polyreactivity |
| QVQLVESGGGLVQAGGSLRLSCAASGITFYSYTMGWYIQAPGKERELVAAISDNGGRTFYADSVKGRFTISRDNAKNTVYLQMNSLKPEDTAVYYCAADSYWYRFLKSRYDYWGQGTQVTVSS | low polyreactivity |
| QVQLVESGGGLDQAGGSLRLSCAASGLTFPTNARGWYRQAPGKEREFVAAITSRGGTTYYADSVKGRFTISRDNAKNTVYLQMNSLKPEETAVYYCGALSVTIYQYDSYGYWGQGTQVSVSS | low polyreactivity |
| QVQLVESRGCLVQPGGSLLLSCAASGIIFGHYVMGWYRQAPGKERELVAAISSRGGNTYYADSVKGRFTISRDNAKNTVYLQMNSLKPEDTAVYYCAADRYATPMDYWGQGTQVTVSS | high polyreactivity |
| QVQLVESGGGLVQAGGSLRLSCAASGRTFYKYAMGWYRQAPGKEREFVADISSRGGSTYYADSVKGRFTISRDNAKNTVYLQMNSLKPEDTAVYYCAARPRPRSANGMYYWGQGTQVTVSS | high polyreactivity |
| QVQLVESGGGIVQAGGSLRLTCAASGRIFLANAMGWYRQAPGKERELVAAISLSGGRTYYADSLKGRFTISRDNAKNSVYFQRNSLKPEDTAVYYCAAEFYPIRYYGGYDYWGQGTQVTVSS | low polyreactivity |
| QVQLVESGGGLVQAGGSLRISCAASGSIFAKNAMGWYRQAPGKERELVAGIDFSGGSTYYADSVKGRFTISRDNAKNTVYLQMNSLKPEDTAVYYCAADWAYKYELDYWGQGTQVTVSS | low polyreactivity |
| QVQLVESGGGLVQAGGRLRLSCAASGSIFRFYAMGWYRQAPGKERELVASISSGGSTYYADSVKGRFTISRDNAKNTVYLKLNSLKAEDTAVYYCAHGFAQYGVDLDPGDYDYWGQGTQVTVSS | low polyreactivity |
| QVQLVESGGGLVQAGVSLRLICDAYGRIFIVNAMGWYRQAPGKERELVAAISRGGSKNYADSVKGRFTISRDNAKNTVYLQMNSLKPEDTAVYYWNGDGSSYWYPVTQHGGDYCGQGTQVTVSS | low polyreactivity |
| QVQLVESGGGLVQAGGSLRLSCAASGFIFYDYDMGWYRQAPGKEREFVAAITYSGGSTYYADSVKGRFTISRDNAKNTVYLQMNCLKPEDTAFYYCADVKSRYAEAVDYFYWGQGTHVTVSS | low polyreactivity |
| QVQLQESGGGLVQAGGSLRMSCAASGSIFSEANIGWYRQAPGKERELVATIGQGSTTNYADSVKGRFTISRDNAKNNVDLQLTSRKPEETAVYYCAVDTVDPVGFVYWGQGTQVTVRS | low polyreactivity |
| QVQLVESGGGLVQEGGSLRLICAASGRTLYHYVMGWYSQAPGKERELVAAISSGGSTYYADSVKGRFTISRDNAKNTVYLQMNSLKPEDTAVYFCAAGRRGDWGQGTQVTVSS | high polyreactivity |
| QVQLVESGGGLVQAGGSLRLSCAASGRTFYVNAMGWYRQAHGKERELVASITSGGSTYYADSVKGRFTISRDNAKNTVYLQMNSLKPEDTAVYYCAARWVQRLRHYIFYYWGQGTQGTVSS | high polyreactivity |
| QVQLVESGGGLVQAGGSLRLSCAASGSTFSSYAMGWYRQAPGKERELVAAISSSGVRTYYADSVKGRFTISRDNAKNSVYLQMNSLKPEDTAVYYCKLTLLTVNRTGMTTWGQGTQVTVSS | high polyreactivity |
| QVQLVESGGGLVQAGGSLRLSCAASGSTIYHYTMECYRQAPGKERELVAAITYSGGRTYYADSVKGRFTISRDNAKNTVYLQMNSLKPEDTAVYYCAATYSTPGAGYYHYWGQGTQVTVSS | high polyreactivity |
| QVQLVESGGGLVQAGGSLRLSCAASGIIFNYYAMGWYRQAPGKERELVAAITRGGRTNYADSVKGRFTISRDNAKNTVYLQMNSLKPEDTAVYYCNAPAFYTYKSFYAHSGYDYWGQGTQVTVSS | high polyreactivity |
| QVQLVESGGGLVQAGGSLRLSCAASGFIFVDYDMGWYRQAPGKERELVASINWSGGSTDYADSVKGRFTISRDNAKNTVYLQMNSLKPEDTAVYYCAAEGQDGRFYWGQGTQVTVSS | low polyreactivity |
| QVQLVESGGGLVQAGGSLRLSCAASGSTFWYNAMGWYRQAPGKEREFVASISFRSGRTYYADSVKGRFTISRDNAKNTVYLQMNSLKPEDTAVYYCAADYYQYKYDYWGQGTQVTVSS | high polyreactivity |
| QVQLVESGGGLVQAGGSLRLSCAASGSIFSSYAMGWYRQAPGKERELVAAISSGGGITYYADSVKGRFTISRDNAKNTVYLQMNSLKPEDTAVYYCNARVARSNNGWYYYWGQGTQVTVSS | high polyreactivity |

| Sequence | polyreactivity (PSR sort gate) |
| --- | --- |
| QVQLVESGGGLVQAGGSLRLSCAASGRTFFYNAMGWYRQAPGKERELVAAISKNGGNTYYADSVKGRFTISRDNAKNTVYLQMNSLKPEDTAVYYCAARQSRTGPDRNDYWGQGTQVTVSS | high polyreactivity |
| QVQLVESGGGVVQAGGSLRLSCAASGRIFRGYVMGWYRQAPRKERELVAAITWSGANTYYADSVKGRFTISRDNAMNTVYLQMNSLKPEDSAVYYCAATVSYWSTKEDDYWGLGTQVTVSS | low polyreactivity |
| QVQLVESGGGLVQAGGSLRLSCAASGSIFYRYAMGWNRPAPGKERELVAAISRSGGTTYYADSVKGRFTISRDNAKNTVYLQMYCLKPEDTAVYYCAALVFHAYSTDPYFYWGQGTQVTVSS | high polyreactivity |
| QVQLVESGGGLVKAGSSLRLSCAASGSIFLYNAMGWYRQAPGKERELVAVINGRGGTYYADSVKGRFTISRDNAKNTVYLQMNSLKPEDNSVYYCATGYPPSAWYDSVRFEDRDSWGQCTQVTVSS | low polyreactivity |
| QVQLVESGGGLVQAGGSLRLSCAASGLTFYFYAMGWYRQAPGKERELVAAIDWGGGSTYYADSVKGRFTISRDNAKNTVYLQMNSLKPEDTAVYYCAARGYYYNYDVNYWGQGTQVTVSS | low polyreactivity |
| QVQLVESGGGLVQAGGSLRLSCAASGYTFGINAMGWYRQAPGNERELVAAITTGGSTNYADSVKGRFTISRDNAKNTVYLQMNSLTPEDTAVYYCNASWDGWNANYWYPGAYYYWGQGTQVTVSS | low polyreactivity |
| QVQLVESGGGLVQAGGSLRLSCAASGSTLLSYTMGWYRQAPGKERELVASITTSGGSTYYADSVKGRFTISRDNAKNTVYLQMNSLKPEDTAVYYWGQGTQVTVSS | low polyreactivity |
| QVQLVESGGGLVQAGGSLRLSCAASGRIFSYNVMGWYRQAPGKERELVAAITSNDGSTYYADSVKGRFTISRDNAKNTVYLQMNSLKPEVTAVYYCNADYGPVSLKEPFRDDYWGQGNQVTVSS | low polyreactivity |
| QVQLVESGGGLVQAGGSLSLSCAASGRTFRYYAMGWYRQAPGKERELVAAMRTRGASTYYADSVKGRFTISRDNAKNSVYLQMNSLKPEVSAVYYCAASRSGHGIIDYDSWGK | low polyreactivity |
| QVQLEESGGGLVQAGGSLRLSCAATGSLFYTYSMGWYRQAPGKERELGASIRSDGITNYADSVKGRFTISRDNAKNTVYLQMNSLKPEDTAVYYCAARIIWSTNYYYWSGYNSWGQGTQVTVSS | high polyreactivity |
| QVQLVESGGGLVQAGGSVRLSCAASGFSFRLYVLGWYRQAPGTERELVAAISSLGGSTYYADSVKGRFTISRDNAKYTVDLQMNSLKPEDTAVYYCAADRPRGRETVDYWGHGTQVTVSS | high polyreactivity |
| QVQLVESGGGLVQAGGSLRLSCDASGFTFYGYAMGWYRQAPGKERELVAAISGNGARTYYADSVKGRFTISRDNAKNTVYLQMNSLKPEDTAVYYCNADPATWWRNKEDYWGQGTQVTVSS | high polyreactivity |
| QVQLVESGGGLVQAGGSLRLSCAASGRTFYPYAMGWYRQAPGKERELVAAITWSGGSTYYADSVKGRFTISRDNAKNTVYLQMNSLKPEDTAVYYCNATYEASFYYEYDYWGQGTQVTVSS | low polyreactivity |
| QVQLVESGGGLVQAGGSLRLSCGASGFTFDVYAMGWYRQAPGKERELVARIRWSGGSTSYADSVKGRFTISRDNAKNTVYVQMNSLKPEDTAVYYCNTRRIYVNSGRGDYWGQGTKVTVSS | low polyreactivity |
| QVQLVESGVGLVQAGGSLRLLCAASGSIFTTYPMGWYRPAPGKERELVAAITSSSGSTYYADSVKGRFTISRDNAKNTVYLQMNSLKPEDTAVYYCNATYSAAVDYWGQGTQVTVSS | low polyreactivity |
| QVQLVESGGGLVQAGGSLRLSCAASGSTFSKYAMGWYRQAPGKERELVAGISRRVGSTYYADSVKGRFTISRDNAKNTVYFQMNSLKPEDTAVYYCNKVRGYPWQVVGYDYWGQGTQVTVSS | high polyreactivity |
| QVQLEESGRGLVQAGGSLPLIFAASGSIIRGYAMGWYRPAPGKERELVAAINWSGSSTYYADSVKGRLTISRDNAKNTVNLQMNSLIPEDTAVYYCALVYYNRNLGGDYWGQGTKVTVSS | low polyreactivity |
| QVQLVESGGGLVQAGGSLRLSCAASGYIFWINAMGWYRHAPGKERDLVAAIRYSTGRTYYADSVKGRFTISRDNAKNTVYLQMNSLKPEDTAVYYCNARSWYIRGSQEYYYWGQGTQVTVSS | high polyreactivity |
| QVQLVESGGGLVQAGGSLRLSCAASGSTFGRNVIGWYRQAPGKERELVAAISIRGGSTYYADSVKGRFTISRDIAKNTVYLQMNSLKPEDTAVYYCALDYPTDAYDYWGQGTQVTVSS | low polyreactivity |
| QVQLVESGGGLVQAGGSLRLSCAASGSIFFFNAMGWYRQAPGKEREMVAAISESGTSTYYADSVKGRFTISRDNAKNTVYLQMNSLKPEDTAVYYCNVVFRYAYGVYYTPEFYYWGQGTQVTVSS | low polyreactivity |
| QVQLVESAGGLVQAGGSLRLSCPASGRTSVINAMGWYRQSPGKERELVAAISSDGITNYADSVKGRFTISRDNAKNTVYLQMISLKPEDTAVYYCAAEWYYVYIAPYDYWGQGTQVTVSS | low polyreactivity |
